Results reported in patent publication US11091546B2, “Optimized PNE-based chimeric receptor T cell switches and uses thereof” (The Scripps Research Institute, priority 2015, dated 2021).
“And” between values parts separate entries of the source, which are not always exact repeats. Equal values may be shown once. “Also recorded” adds a separate entry of the source.

Key:
RS4;11 (CD19 positive) = assay type: cell-based, human
Method: Activity was assessed against NALM-6 (CD19^+), RS4;11 (CD19^+), or RPMI-8226 (CD19^−) (Table 2). The activity of the IgG (FcNull) switch was assessed against RS4;11 (CD19^+), or K562 (CD19^−) (Table 2). The activity of the C-terminal switch was assessed against RS4;11 (CD19^+), or K562 (CD19^−) (Table 4).
(§1) sCAR-T cells were co-cultured (96-well plate round bottom; 20-24h; 37° C.; 5% CO2) with RS4;11 (CD19^+) or K562 (CD19^−) cells at a ratio of 10 sCAR-T cells to 1 RS4;11/K562 cell (110,000 cells in total) in 100 uL of RPMI-1640 supplemented with 5% heat inactivated fetal calf serum (Thermo), 1% penicillin-streptomycin (Gibco), 1% L-Glutamine (Gibco), 1 mM sodium pyruvate (Gibco) and 1% non-essential amino acids (Gibco). After 24 hours, each plate was centrifuged at 400×g for 5 minutes at 4° C. To measure target cell lysis, the intracellular protein lactate dehydrogenase (LDH) was measured in the cytotoxicity assay supernatants from the co-cultured cells using the CytoTox 96® Non-Radioactive Cytotoxicity Assay kit (Promega). To measure the effector responses of the sCART cells in vitro, cytokine levels were measured in the cytotoxicity assay supernatants using the Cytometric Bead Array (CBA) Human Th1/Th2 Cytokine Kit II (BD). […]
The GCN4 CAR design was therefore modified to contain the CD8 hinge region (used in CART-19), which has an extracellular CAR domain of approximately 80 Å, and an IgG4 hinge with an extracellular CAR domain of approximately 15-30 Å. An additional construct was developed where a mutation was introduced into the IgG4 hinge that allows for spontaneous disulphide bridge formation between receptor molecules (IgG4m). […] Briefly, activated PBMC were transduced with lentivirus (SEQ ID: 1) containing the anti-PNE CAR construct (SEQ ID: 180) with the CD8 (SEQ ID: 68), IgG4 (SEQ ID: 70) and IgG4m (SEQ ID: 71) hinge domains.
Monovalent and bivalent combinations of these switches were expressed in mammalian protein expression systems (HEK293 or CHO cells) and purified using protein-G columns. Switches were used in cytotoxicity assays at a dose titration within the range of 10 nM to 0.0001 nM. The activity of each switch combination was tested in vitro in the General cytotoxicity assays where LDH release, cytokine production and sCART cell activation were compared (FIGS. 11A-11C).
CAR-T or target cells were incubated with 1 pM to […] of switch in FACS buffer (PBS, 1% FCS, 2 mM EDTA) for 30 minutes at 4° C. before being washed twice and then incubated with the PE-conjugated goat-anti-human kappa antibody (1:100). Cells were washed two times and analyzed using the Accuri flow cytometer (BD). CAR-T cell activity was determined using the CytoTox 96® Non-Radioactive Cytotoxicity Assay (Promega). CAR-T cells were incubated with target cells in the presence of switch for 20-24 hours at 37° C. in complete RPMI with 5% FCS. At the end of the assay, 30 μL of cell free supernatant was added to 30 μL of the LDH assay reagent in a 96-well plate and incubated for 30 minutes at room temperature in the dark; 30 μL of stop solution was added before the plate was read at OD495.

Nalm-6^Luc/GFP cells = assay: Nalm-6 Luc/GFP leukemia xenograft; assay type: in vivo; details: short-dimeric sCAR-T cells; 0.5 mg/kg every other day from day 6
Method: NSG mice were inoculated with CD19^+ Nalm-6^GFP/Luc cells. Six days later, 40×10^6 sCAR-T cells were delivered IV and switch dosing commenced every other day at 0.5 mg/kg for 10 days. Tumor burden was followed by luminescence after injection of luciferin and imaged on an in vivo imaging system (IVIS; PerkinElmer, Waltham, Mass., USA).
Asterisks indicate significance from LCNT Fab group. Data are represented as means±SEM, and statistical significance was calculated using the 2-way ANOVA with Bonferroni's post-test (B & E; shown for final time-point only) or by one-tailed student's t-test (C & F) where *=p<0.05, **=p<0.01 and ***=p<0.001.
NSG mice were inoculated with Nalm-6^GFP/Luc as described in FIG. 28. […] A fourth group consisted of two cohorts (n=3) of mice injected I.V. with sCAR-T cells without (−) LCNT Fab switch. LCNT Fab dosing in the indicated group was carried out daily at 0.5 mg/kg after the initial T cell infusion. Luminescence was measured at 6 h and subsequently every 24 h as indicated. Cohorts were sacrificed for analysis immediately following IVIS imaging. […] Gray lines indicate tumor burden in PBS and sCAR-T cell—LCNT Fab controls. […] Data are represented as means±SEM, and statistical significance was calculated using the one-tailed student's t-test (C & D) where *=p<0.05, **=p<0.01 and ***=p<0.001.
NSG mice were inoculated with Nalm6^GFP/Luc and six days later engrafted with short-dimeric sCAR-T cells as described in FIG. 29. […] Dosing was carried out for 15 d starting at day 6 (corresponding with sCAR-T cell infusion) as indicated by gray shading. Control groups CART-19 and PBS received no switch. The NS group received sCAR-T cells but no switch. Open circles denote the death of individual mice without evidence of tumor burden and may reflect GVHD. Triangles in PBS, NS and q.a.d. group indicate death due to increasing tumor burden. […] (19) indicates CART-19. […] (19) indicates CART-19. […] Triangles indicate the death of individual mice with significant tumor burden. The single mouse death in the 0.05 mg/kg group occurred while tumor burden was decreasing. […] Statistical significance was calculated using the one-tailed student's t-test (B, C & E) where *=p<0.05, **=p<0.01 and ***=p<0.001.
The different sCAR designs were tested in a xenograft model harboring luciferized NALM-6 (CD19+, CD80−, CD86−) cells. 1 mg/kg monovalent switch “A” was administered along with sCAR cells. […] Optimized hinge improved response. Short hinge CARs have faster clearance. Short, dimeric hinge CARs have improved persistence. Tumor burden was visualized with IVIS imaging. Experiments are repeated with a humanized scFv and bivalent switches.
Activity of the switchable CAR-T cell platform in vivo was evaluated via tumor regression in a Nalm-6^Luc/GFP leukemia xenograft model in immunodeficient NOD scid gamma (NSG) mice. These mice without treatment succumb to disease within 21 days. The impact of CAR hinge design on in vivo efficacy was determined using mice inoculated with Nalm-6^Luc/GFP, followed by I.V. injection of long, short, or short-dimeric sCAR-T cells 6 days later. The LCNT Fab was dosed I.V. (0.5 mg/kg) every other day for 10 days and tumor regression was followed by in vivo imaging (IVIS) of the luciferase signal from Nalm-6^Luc/GFP cells (FIG. 29A).
The effect of switch grafting position on the control of tumor burden was determined. As with the previous model, short-dimeric CAR-T cells were injected 6 days after tumor inoculation and mice were treated every other day (starting at day 6) with 0.5 mg/kg LCNT, HCNT, NTBV, LCC1, or HCCT Fab switches (FIG. 29D).
To determine the proliferation and localization of sCAR-T cell cytotoxicity during this time interval, mice were sorted into 5 cohorts per treatment regimen and analyzed at 8, 24, 48, 72, and 96 h after treatment with short-dimeric sCAR-T cells+LCNT Fab switch or with conventional CART-19 and no switch. […]

RS4;11 cells = assay: Cytokine release (CBA) in cytotoxicity co-culture; assay type: cell-based, human; details: 1 nM switch
Method: as §1
CAR-T or target cells were incubated with 1 pM to […] of switch in FACS buffer (PBS, 1% FCS, 2 mM EDTA) for 30 minutes at 4° C. before being washed twice and then incubated with the PE-conjugated goat-anti-human kappa antibody (1:100). Cells were washed two times and analyzed using the Accuri flow cytometer (BD). CAR-T cell activity was determined using the CytoTox 96® Non-Radioactive Cytotoxicity Assay (Promega). […]

CD33+ MOLM14 cells = assay: Cytotoxicity assay, sCAR-T cells + anti-CD33 (hP67.6) switches; assay type: cell-based; design: unit not given here; details: duplicates
Source text: (§2) FIG. 38A illustrates multiple fusion/grafting locations: A=LCNT1 (light chain N terminus version 1), B=HCNT3 (heavy chain N terminus version 3), C=heavy chain C terminus, and D=light chain C terminus). […] Data shown are an average of duplicate samples, and error bars represent SD. Only the NT switches plus the BvCT and By CH1CL1 as references are depicted.
(§3) Monovalent and bivalent combinations of these switches were expressed and tested in cytotoxicity assays at a dose titration within the range of 0.4 nM to 0.0001 nM. […] Data shown are an average of duplicate samples, and error bars represent SD. Only the NT switches plus the BvCT and By CH1CL1 as references are depicted. cytokine secretion was measured.

MOLM14 cell line = assay: Cytokines in cytotoxicity assay supernatant (CBA Human Th1/Th2 II Kit); assay type: cell-based; design: unit not given here; details: duplicates
Source text: as §2, §3

For “anti-CD19 Fab HCCT: FMC63 anti-CD19 Fab, peptide on C-terminus of heavy chain (SEQ ID 27 & 34)”, the EC50 (RS4;11 (CD19 positive)) was 0.02 ± 0.0009 nM and the “tumor burden (IVIS), switch graft position comparison” value (Nalm-6^Luc/GFP cells) was “little control”.

In the case of “anti-CD19 Fab NTBV: FMC63 anti-CD19 Fab, peptide on N-terminus of light and heavy chain (SEQ ID 36 & 88)”, the “cytokine production” value (RS4;11 cells; CD8 hinge sCAR-T) is reported as “induced the greatest cytokine production; also recorded: induced the greatest IL-2 production”, the “increase in IL-2 production” value (RS4;11 cells; CD8 sCAR-T cells) is reported as 50% and the “tumor burden (IVIS), switch graft position comparison” value (Nalm-6^Luc/GFP cells) is reported as “greatest reduction in tumor burden”.

For “anti-CD19 Fab WT: FMC63 anti-CD19 Fab with no grafted peptide (SEQ ID 27 & 29) [reference compound]”, the “cytotoxicity” value (RS4;11 (CD19 positive)) was “did not induce significant cytotoxicity”.

For “anti-CD19 IgG WT: FMC63 anti-CD19 IgG with no grafted peptide (SEQ ID 27 & 28) [reference compound]”, the “cytotoxicity” value (RS4;11 (CD19 positive)) was “did not induce significant cytotoxicity”.

B1: hP67.6 HCNT: anti-CD33 hP67.6 Fab, GCN4 on heavy chain N-terminus, rigid linker SEQ ID 45 (SEQ ID 231 & 220) (protein)
light: DIQLTQSPSTLSASVGDRVTITCRASESLDNYGIRFLTWFQQKPGKAPKLLMYAASNQGSGVPSRFSGSGSGTEFTLTISSLQPDDFATYYCQQTKEVPWSFGQGTKVEVKRTVAAPSVFIFPPSDEQLKSGTASVVCLLNNFYPREAKVQWKVDNALQSGNSQESVTEQDSKDSTYSLSSTLTLSKADYEKHKVYACEVTHQGLSSPVTKSFNRGEC
heavy: NYHLENEVARLKKLLVGEAAAKEAAAKAEVQLVQSGAEVKKPGSSVKVSCKASGYTITDSNIHWVRQAPGQSLEWIGYIYPYNGGTDYNQKFKNRATLTVDNPTNTAYMELSSLRSEDTAFYYCVNGNPWLAYWGQGTLVTVSSARTKGPSVFPLAPSSKSTSGGTAALGCLVKDYFPEPVTVSWNSGALTSGVHTFPAVLQSSGLYSLSSVVTVPSSSLGTQTYICNVNHKPSNTKVDKKVEPKSC
modifications: GCN4 on heavy chain N-terminus; Made in lab - CD33 (hP67.6) LCWT; Made in Lab - CD33 (hP67.6) HCNT1
For B1, the “cytotoxicity (FIG. 38G)” value (CD33+ MOLM14 cells; switch 0.1 pM) was 0, the “cytotoxicity (FIG. 38G)” value (CD33+ MOLM14 cells; switch 3.2 pM) was 10.3 and 8.3 and the “cytotoxicity (FIG. 38G)” value (CD33+ MOLM14 cells; switch 16 pM) was 47.8 and 45.5. For the same molecule, the “cytotoxicity (FIG. 38G)” value (CD33+ MOLM14 cells; switch 80 pM) was 65 and 64.4, the “cytotoxicity (FIG. 38G)” value (CD33+ MOLM14 cells; switch 400 pM) was 69.4 and 70.2 and the “IFNg in supernatant (FIG. 38H)” value (MOLM14 cell line) was 1037.59 and 876.36. For the same molecule, the “Il-2 in supernatant (FIG. 38H)” value (MOLM14 cell line) was 861.13 and 653 and the “TNFa in supernatant (FIG. 38H)” value (MOLM14 cell line) was 114.13 and 87.74.
